The text below walks through data of patent US20230158179A1 (RAYZEBIO, published 2023).

Experiment [1] deals with T1, Trop-2 on Trop-2 expressing cells (A431) (UniProt P09758 27-323, limits assumed).
T1 construct: whole, on cells; also called tumor-associated calcium signal transducer 2
T1 sequence (looked up): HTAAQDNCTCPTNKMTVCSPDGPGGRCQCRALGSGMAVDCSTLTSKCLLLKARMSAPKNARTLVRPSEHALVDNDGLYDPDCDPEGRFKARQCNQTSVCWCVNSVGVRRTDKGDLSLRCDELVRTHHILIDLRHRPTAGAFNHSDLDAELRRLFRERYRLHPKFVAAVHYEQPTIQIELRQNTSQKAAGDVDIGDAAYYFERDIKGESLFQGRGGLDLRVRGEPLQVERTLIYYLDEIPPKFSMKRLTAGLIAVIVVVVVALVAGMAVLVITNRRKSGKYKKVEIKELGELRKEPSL
Briefly: flow cytometry on A431 cells, procedure of the PSMA cell assay; grade legend paragraph 462: 0 nM < A <= 100 nM.

The target of experiment [2] is T2, Human Serum Albumin (human, UniProt P02768 25-609).
T2 construct: Immobilised on the HPLC column; also called HSA
Briefly: HSA-HPLC, immobilised HSA column, estimated from retention time; grade legend paragraph 440: 90% < A <= 100%. From the text: HSA-HPLC method (measurement of drug protein binding by immobilized human serum albumin-HPLC). A 13-minute HPLC (Thermo Vanquish Horizon with Diode Array Detector) gradient method was used to determine the HSA (Human Serum Albumin) binding of novel compounds using a chemically bonded protein stationary phase (ChiralPAK HSA HPLC column, 50×4 mm). The HSA binding values were derived from the gradient retention times that were converted to the logarithm of the equilibrium constant using data from a calibration set of molecules. The % bound to plasma values for the calibrator compounds were converted to the linear free energy values using the following equation: LogK=log[% PPB/(101−% PPB)]. The logarithmic value of the gradient retention times from the experiment were plotted against the linearized values of the percent bound to plasma. The slope and the intercept were used to convert the retention times to linear free energy values (LogK), from which the estimated % protein binding was calculated using the following equation: % Binding=[(101·10^LogK)/(1+10^LogK)]. Aqueous mobile phase (A) was 50 mM ammonium acetate solution, ph7.4 and the organic mobile phase (B) was 2-propanol. The flow rate was set at 0.350mL/min and injection volume was 5 uL, with samples prepared at 0.5 mg/mL concentration in 50:50 mobile phase. The initial LC conditions were conducted at room temperature, set at 0% B and ramped to 50% B over 8.5 minutes, then held at 50% B for 1.5 minutes before going back to initial conditions and re-equilibrating the column for 2.5 minutes. Chromatograms were recorded at 280 nm by a diode array UV absorption detector.

The target of experiment [3] is T3, FOLR1 on FOLR1 expressing cells (IGROV1) (UniProt P15328 25-234, limits assumed).
T3 construct: whole, on cells; also called folate receptor 1
Briefly: flow cytometry on IGROV1 cells in human plasma/PBS, detection with SA-647; grade legend paragraph 454: 0 nM < A <= 100 nM.

In experiment [4] the target is T4, FOLR1-Fc-Avi (AcroBiosystems, F01-H82F9) (UniProt P15328 25-234, biotinylated (immobilised by streptavidin-biotin chemistry)).
T4 construct: Bought reagent; also called folate receptor 1
Briefly: SPR, Biacore 8K, FOLR1-Fc-Avi immobilised, single cycle kinetics, 1:1 model; grade legend paragraph 444: 0 nM < A <= 10 nM. On the procedure:
For analysis of peptide binding, a Biacore 8K instrument was used utilizing either a SA chip or a CAP chip. FOLR1-Fc-Avi (AcroBiosystems, F01-H₈₂F9) was immobilized on the chip using streptavidin-biotin chemistry at 25° C. in PBS-P+ buffer (20 mM phosphate, 2.7 mM KCl, 137 mM NaCl, 0.05% Tween-20, pH 7.4) to a level of 500-2500 RU (dependent on the analyte molecular weight). A dilution series of peptides was prepared in this buffer with a final DMSO concentration of 1% with a top peptide concentration at 50 or 100 nM and 8 further 2-fold dilutions. The SPR analysis was run at 25° C. at a flow rate of 100 μL/min in PBS-P+ with 1% DMSO running buffer and with a 120 second association and 10,000 second dissociation using single cycle kinetics methodology. All data was analyzed using Biacore Insight Evaluation Software version 3.) Data was fitted using a Langmuir 1:1 binding model.

The target of experiment [5] is T5, His-Avi-PSMA (AcroBiosystems, PSA-H82Qb) (UniProt Q04609 44-750, biotinylated (immobilised by streptavidin-biotin chemistry)).
T5 construct: Bought reagent; also called prostate-specific membrane antigen
Put plainly: SPR, Biacore 8K, His-Avi-PSMA immobilised, single cycle kinetics, 1:1 model; grade legend paragraph 447: 0 nM < A <= 10 nM. On the procedure:
For analysis of peptide binding, a Biacore 8K instrument was used utilizing a SA chip. His-Avi-PSMA (AcroBiosystems, PSA-H82Qb) was immobilized on the chip using streptavidin-biotin chemistry at 25° C. in HBS-P+ buffer (10 mM HEPES, 150 mM NaCl, 0.05% Tween-20, pH 7.4) to a level of 800-2200 RU (dependent on the analyte molecular weight). A dilution series of peptides was prepared in this buffer with a final DMSO concentration of 1% with a top peptide concentration between 10-100 nM and 8 further 2-fold dilutions. The SPR analysis was run at 25° C. at a flow rate of 100 μL/min in HBS-P+ with 1% DMSO running buffer and with a 120 second association and 10,000 second dissociation using single cycle kinetics methodology. All data was analyzed using Biacore Insight Evaluation Software version 3. Data was fitted using a Langmuir 1:1 binding model.

Experiment [6] concerns the target T6, PSMA on PSMA expressing cells (LnCap) (UniProt Q04609 1-750, limits assumed).
T6 construct: whole, on cells; also called prostate-specific membrane antigen
Put plainly: flow cytometry on LnCap cells, biotinylated compound, detection with SA-A647; grade legend paragraph 460: 0 nM < A <= 100 nM.

Bridge positions count the residues as written; N and C are the ends. Square brackets hold non-standard residues; d marks the D form. Phe(3-Ph) = N[C@@H](Cc1cccc(-c2ccccc2)c1)C(=O)O; Bip = N[C@@H](Cc1ccc(-c2ccccc2)cc1)C(=O)O; Phe(3-Cl) = N[C@@H](Cc1cccc(Cl)c1)C(=O)O; NMeY = CN[C@@H](Cc1ccc(O)cc1)C(=O)O; NMeF = CN[C@@H](Cc1ccccc1)C(=O)O; Cba = N[C@@H](CC1CCC1)C(=O)O; Chg = N[C@H](C(=O)O)C1CCCCC1

T4 sequence (P15328 25-234 limits assumed): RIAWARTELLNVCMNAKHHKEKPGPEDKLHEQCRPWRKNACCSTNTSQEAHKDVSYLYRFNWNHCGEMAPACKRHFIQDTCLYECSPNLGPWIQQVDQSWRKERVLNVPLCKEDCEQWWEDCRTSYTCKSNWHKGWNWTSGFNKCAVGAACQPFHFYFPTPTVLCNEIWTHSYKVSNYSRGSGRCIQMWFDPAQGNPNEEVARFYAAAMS
T3 sequence (P15328 25-234 limits assumed): as above
T6 sequence (Q04609 whole entry): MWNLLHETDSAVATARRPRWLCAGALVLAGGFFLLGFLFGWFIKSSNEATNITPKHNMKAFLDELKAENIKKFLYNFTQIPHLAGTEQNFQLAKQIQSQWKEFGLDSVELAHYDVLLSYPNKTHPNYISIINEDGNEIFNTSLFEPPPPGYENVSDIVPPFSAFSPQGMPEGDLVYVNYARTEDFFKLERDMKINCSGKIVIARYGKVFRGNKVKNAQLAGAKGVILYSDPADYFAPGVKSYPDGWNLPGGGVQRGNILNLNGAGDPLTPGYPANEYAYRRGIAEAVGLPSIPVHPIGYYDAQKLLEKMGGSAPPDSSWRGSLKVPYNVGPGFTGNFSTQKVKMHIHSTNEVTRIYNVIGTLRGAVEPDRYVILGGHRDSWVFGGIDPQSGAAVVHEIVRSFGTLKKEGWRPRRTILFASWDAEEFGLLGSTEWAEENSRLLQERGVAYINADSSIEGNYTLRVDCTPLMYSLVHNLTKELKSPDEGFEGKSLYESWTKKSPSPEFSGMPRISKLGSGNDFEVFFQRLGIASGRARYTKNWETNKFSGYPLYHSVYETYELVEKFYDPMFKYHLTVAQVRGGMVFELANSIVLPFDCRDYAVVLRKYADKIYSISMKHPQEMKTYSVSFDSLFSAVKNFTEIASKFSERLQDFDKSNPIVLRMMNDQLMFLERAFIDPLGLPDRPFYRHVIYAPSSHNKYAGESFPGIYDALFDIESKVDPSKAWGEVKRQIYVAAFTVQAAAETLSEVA
T5 sequence (Q04609 44-750 limits assumed): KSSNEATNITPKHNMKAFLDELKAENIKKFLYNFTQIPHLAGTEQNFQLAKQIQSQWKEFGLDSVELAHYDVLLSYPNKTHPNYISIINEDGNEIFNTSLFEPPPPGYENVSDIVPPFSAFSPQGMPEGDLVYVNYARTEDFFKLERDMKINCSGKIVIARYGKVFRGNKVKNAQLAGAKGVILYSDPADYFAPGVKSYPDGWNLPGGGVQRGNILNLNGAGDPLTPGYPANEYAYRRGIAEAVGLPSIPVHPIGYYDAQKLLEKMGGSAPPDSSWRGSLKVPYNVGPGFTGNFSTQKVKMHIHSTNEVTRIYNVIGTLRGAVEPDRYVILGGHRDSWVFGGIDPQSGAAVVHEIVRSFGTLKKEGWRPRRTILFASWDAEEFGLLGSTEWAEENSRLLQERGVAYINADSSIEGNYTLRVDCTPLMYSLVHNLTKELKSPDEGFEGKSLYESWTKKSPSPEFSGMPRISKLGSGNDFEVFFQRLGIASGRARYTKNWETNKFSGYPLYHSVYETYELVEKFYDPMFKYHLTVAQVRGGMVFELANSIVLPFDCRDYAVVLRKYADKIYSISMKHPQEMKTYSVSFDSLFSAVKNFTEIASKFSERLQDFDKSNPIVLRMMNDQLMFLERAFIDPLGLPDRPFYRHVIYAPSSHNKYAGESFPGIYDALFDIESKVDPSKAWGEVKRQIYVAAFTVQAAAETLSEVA

B1: P-40 (peptide)
peptide: [dA]D[Bip]IYPA[Bip]SSES[NMeF]C-NH2
modifications: bridge N-14; not fully specified (N-terminus, bridges)
notes: The cell assay followed the procedure with biotinylated compounds
Turning to B1, in experiment [1], the EC50 is ≤ 100 nM. In addition, the “% Bound to HSA at r.t.” value in experiment [2] is > 90%.

B2: P-10 (peptide)
peptide: ARL[NMeF]DYDT[NMeY][NMeY]WYC-NH2
modifications: bridge N-13; not fully specified (N-terminus, bridges)
notes: The cell assay detects with SA-647, so a biotinylated form was used
For the molecule B2, the concentration giving a half-maximal response (EC50) in experiment [3] was ≤ 100 nM. Besides, in experiment [4], the Kd is ≤ 10 nM. Moreover, the “% Bound to HSA at r.t.” value in experiment [2] is > 90%.

Turning to DR[Chg][NMeF]DYDT[NMeY][NMeY]WYC-NH2 (bridge N-13; not fully specified (N-terminus, bridges)) [P-12], the Kd in experiment [4] was ≤ 10 nM. Besides, the “% Bound to HSA at r.t.” value in experiment [2] was > 90%.

B3: P-11 (peptide)
peptide: DR[Chg][NMeF]D[Phe(3-Cl)]DT[NMeY][NMeY]WYC-NH2
modifications: bridge N-13; not fully specified (N-terminus, bridges)
notes: as for B2
In the case of B3, the EC50 in experiment [3] was ≤ 100 nM. In addition, the Kd in experiment [4] was ≤ 10 nM. Also, the “% Bound to HSA at r.t.” value in experiment [2] was > 90%.

With W[Phe(3-Ph)]DVDSD[Cba]W[Phe(3-Ph)]DC-NH2 (bridge N-12; not fully specified (N-terminus, bridges)) [P-21], in experiment [5], the Kd is ≤ 10 nM. The concentration for a half-maximal effect (EC50) in experiment [6] is ≤ 100 nM. The “% Bound to HSA at r.t.” value in experiment [2] was > 90%.
